The RNAGym collection of RNA variant scans (doi:10.1073/pnas.2313332121)
This sample holds only a part of the variants without activity.

B1: TPR 5TU (parent)
chain: GGAUCUUCUCGAUCUAACAAAAAAGACAAAUCUGCCACAAAGCUUGAGAGCAUCUUCGGAUGCAGAGGCGGCAGCCUUCGGUGGCGCGAUAGCGCCAACGUUCUCAACUAUGACACGCAAAACGCGUGCUCCGUUGAAUGGAGUUUAUCAUG

Variants of: B1
Experiment: polymerase ribozyme fitness, log enrichment relative to wild type (log ratio); higher = more active; in vitro selection for triplet polymerase activity
Procedure, shortened: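 For each subunit of a heterodimeric triplet polymerase ribozyme, a mutant library was built by PCR and transcribed, then taken through a single in vitro selection round in triplicate. Selection involved annealing to a biotinylated primer, the partner subunit and triplets, incubation frozen at −7 °C, gel excision of extended constructs, capture on streptavidin beads and RT-PCR. Genotypes were retained after Illumina sequencing of inputs and outputs only with ≥10 input reads and ≥1 read in each output. Fitness is defined as the logarithm of a genotype's enrichment relative to wild-type enrichment, using inverse-variance-weighted averages across replicates, with the logarithm taken to base 2.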

Variant	polymerase ribozyme fitness (log ratio)
A40C U45A G48A A49C U55A G62C U77A C118A U134C A142G	≤ -4.2
A40G U109G	-3.14
A41C A49C U77C G86C C96U U101G C118G	≤ -4.2
A39U U61C	-4.04
A40U A60U G70C C76U C96A	≤ -4.2
A40U U44A C57U C76G A91U U134C G136C	≤ -4.2
A40G C51A G83A C96U U101G	≤ -4.2
A39U U55G G81U C103A	≤ -4.2
A40U C54U G70C G117U G128C A137G	≤ -4.2
A40C C87G C105G	-4.19
A40G G84C U109G A119U U139A G140U G152U	≤ -4.2
A40C G62U A97G C116G A122U	-1.6
A40U G50C A91G U104A	≤ -4.2
A40C C87G G94U C95G C118G	≤ -4.2
A40G C87U A115G	-3.19
A40U C51G	-1.26
A40U C51A	-0.707
A40C A47U A60U	-1.07
A40C U55A	0.494
A40C G83U A119G	-1.55
A40G U53A C54U U82G C87A A89G A137U A138U U145A	≤ -4.2
A40C A52U U111C A119U U139G U151G	≤ -4.2
A40U A91G C116U A121U	-2.66
A40U G46A C85A A115G A120G	-4.09

Variant	polymerase ribozyme fitness (log ratio)
A39U G80U	-3.44
A40C U55A G86C A115C	-3.79
A40G U55A	-2
A40G C85A G133U	≤ -4.2
A41C C76A C85G C99A	≤ -4.2
A40C G88A A91G U144G	≤ -4.2
A40C G59A C85A A89C	-2.83
A41C C93A A97C	-3.96
A40U C93U	-0.794
A39U U55G G67C G86U A115C	≤ -4.2
A40U U104C C108A	≤ -4.2
A41C	-0.379
A40C G50C G80C A97U U134A U145G	≤ -4.2
A40U G84U G136U	-3.66
A40U A41U C57U C108U G143U	≤ -4.2
A40C C76A	-2.59
A40C G92A A97U	-3.34
A41C A91G G141U	-2.56
A40U C114G	-3.04
A40U G58A	0.274
A40C G65A A73U A98U	≤ -4.2
A40C C54A G59C C87U	-2.96
A40U C93A U148A	≤ -4.2
A40G G71U G86U	≤ -4.2

Variant	polymerase ribozyme fitness (log ratio)
A40C A52C U53A A73U C76A G83C U102A	≤ -4.2
A39U G70C G80U C87G C93U U134C	≤ -4.2
A40C A60U G81C A138G C149A	≤ -4.2
A40C G42U	≤ -4.2
A40U C87G G133U	≤ -4.2
A41C A49C G92A A106C	≤ -4.2
A39U G84A C123G	-2.9
A40G A49C U53A	≤ -4.2
A40G G83U G92A C99G A107U	≤ -4.2
A40G G86U A120G	-3.99
A41C A52C C114U	-3.97
A41C C54U G141C	-1.43
A41C C76G C96U	≤ -4.2
A40U C57U G68C A107G C108U U139A	≤ -4.2
A40C G42C G80U	≤ -4.2
A40C A60G G62U G68A A97U G141A A142G	≤ -4.2
A40G A41C	-1.36
A40C A150C	-3.94
A40C G42U C51G G67A C76A G86C A89U U127G	≤ -4.2
A40G G84U A89U U104G	≤ -4.2
A40G U61C G92U U145G	≤ -4.2
A40G G59A U78A G94A C108U	≤ -4.2
A40U A64G C75U A97G	≤ -4.2
A39U U127C	-4

Variant	polymerase ribozyme fitness (log ratio)
A41C C63G G86A A115C	-2.61
A41C C57U	-0.124
A40G C85G	-3.63
A41C A150U	0.683
A40C U44A U55A C57A C76A	≤ -4.2
A40U G152A	-2.57
A40G C54G G74A G83C C105G	≤ -4.2
A41C C85U G112C	-3.5
A40G G48A C125A	≤ -4.2
A40C U61A	-1.94
A40C A52U C57U G92C C95U C105U A106C U109C A138G	≤ -4.2
A40C A138G U144G	-3.92
A40C C69U A91U C96A A119G U134A A142U	≤ -4.2
A40G G71C G74U C93U A98G	≤ -4.2
A39U U104G	-3.71
A41C A66G G70A A91U C93U C96G	≤ -4.2
A40G A60C C105G A138C A147U	≤ -4.2
A41C A49G C51A G71U C93A C95U U111G	≤ -4.2
A40G G59A G68U	≤ -4.2
A39U G46U A47C A52C C87U A98G U104G C114A C125U	≤ -4.2
A39U U56A C116U	-2.74
A40C G42A A52U G81C G84U A97C C118U	≤ -4.2
A39U U77A U78G C85G G86A	≤ -4.2
A40U C103A U139G U146A	-2.67

Variant	polymerase ribozyme fitness (log ratio)
A39U G59C U146G A150G	-3.66
A40U G117C	-0.102
A40U U90G C118G G133C U148G	≤ -4.2
A41C C75U G92C A150U	-2.91
A40C A106U A138G	≤ -4.2
A40C C76U G86A A115C U135A A142G	-3.94
A40G C95U	-2.52
A40C C51G U61A C95G	≤ -4.2
A40C G92U U135G	-2.96
A40U A41C A60G A98U A150U	0.591
A40C A89U C96U C114U G128C U145G	≤ -4.2
A40G G58A	-0.952
A40C C54U A64U U78A G88C A150G	≤ -4.2
A40U C96U C118U	-0.191
A41C C43U A97G C108U G140U	≤ -4.2
A40U U82G G84U C93A C99A U109G G136U	≤ -4.2
A40G G84A C85G A106G	≤ -4.2
A40U A113C	-3.79
A40U C57A A73U C95U U135G C149G	≤ -4.2
A39U U56A G62C C85A C95G U101A C123G G143C	≤ -4.2
A41C C57A G92A C93A C105U A115C G124A U144A	≤ -4.2
A40C A41C C43U U55G C72U C96U A120U G124C	≤ -4.2
A41C C87U A142G	-1.45
A40C A89U A137C	-3.94

Variant	polymerase ribozyme fitness (log ratio)
A40C G48A	-1.28
A41C C79U C95U	-3.78
A39U G86A U102G C103G A106C	≤ -4.2
A40U U145A	-0.163
A40C C99U A137U U146A	-4.14
A41C A49C U56A G67C C76G C87A	≤ -4.2
A40C C85U G124U	-0.182
A40U A147G	-3.6
A39U G50A G67U G71C G84A	≤ -4.2
A40U C54G C118A	-1.63
A40C G68U C99A U130G	≤ -4.2
A41C A47C G59A A60G C85A U127G A137G	≤ -4.2
A40U A52U G126U U135G A142G	≤ -4.2
A40G G46U G84U C87U A97U U144A	≤ -4.2
A40U G83A C95A A115U G128U C129A	≤ -4.2
A39U G50U U139G	-2.97
A40C G141U	1.43
A40C C57A G68A G86U A121U	≤ -4.2
A40G C75U C93U A97U	≤ -4.2
A40C C51U U55G G74C A89C G92A	≤ -4.2
A41C A52C	-1.97
A40U G86U	-1.77
A40U G92U A119G	-0.619
A40G A98G A113C	≤ -4.2

Variant	polymerase ribozyme fitness (log ratio)
A40G U45A U55G G68C A91C U102G G126A C149G	≤ -4.2
A41C A66U U135A	≤ -4.2
A40G C51U U56A U78A G83C	≤ -4.2
A41C C87U U102A U109C G136A A138U	≤ -4.2
A40U G48C A64U G83A G143A	≤ -4.2
A40U G126C	-0.388
A40U A52G G65A G70A G128U	≤ -4.2
A40G U56A C99U	-2.66
A40C A47U C85G A89G U148G	≤ -4.2
A40C C57G C85A U102A	≤ -4.2
A40G U56A G84A A91C C95G G100U	≤ -4.2
A40U U56G C72U A91G	-3.52
A40C U44A A49C G65A C75G G84U C118U G128U U130C	≤ -4.2
A40G A41G C63U C76A G83C G152U	≤ -4.2
A40U U45G	-0.54
A40C A52G	0.882
A40G U56A G86A	-3.13
A39U G94U A122U G143A A147C	≤ -4.2
A40C G50A A91G A147C U151A	≤ -4.2
A40G G67A G94A G100A A107U	≤ -4.2
A39U G70A G88A U127A U144A	≤ -4.2
A40G C57G G58A G117C A119U	-1.96
A40U G48C U53A U144G	-2.19
